The record followed here is US20210284749A1 (ABL BIO, published 2021).

As usually defined, the Kd is a measure of binding affinity in units of concentration. A low value points to a tighter complex. The term koff denotes the first-order rate constant of dissociation. Low readings indicate slow dissociation, high ones fast dissociation. Broadly, the kon is the second-order rate constant of association. A lower kon goes with slow association. Usually EC50 stands for the concentration that produces a half-maximal response. Read a low EC50 as an effect from little substance. By EC50 (read off the curve) is commonly meant the midpoint of the concentration-response curve. Read a high EC50 (read off the curve) as a less potent agent.

Changes are numbered by the printed parent chain.

Assay [1] has as its target T1, human BCMA expressed on cell surface (H929, OPM-2, CHOK1-hBCMA cells) (human, UniProt Q02223 1-184).
T1 construct: also called cell-surface BCMA; BCMA on cell surface
T1 sequence: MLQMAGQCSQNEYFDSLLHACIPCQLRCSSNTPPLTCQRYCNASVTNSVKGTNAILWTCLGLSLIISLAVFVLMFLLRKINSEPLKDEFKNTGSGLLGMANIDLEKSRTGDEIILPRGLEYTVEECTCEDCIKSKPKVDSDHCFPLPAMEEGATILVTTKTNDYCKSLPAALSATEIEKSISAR
Briefly: FACS on OPM-2 cells, 10 µg/ml antibody, anti-human Fc-FITC; open histogram shifted right of the filled control. The protocol:
Multiple myeloma cancer cells H929 (ATCC, CRL9068™) and OPM-2 cell line (DSMZ, ACC 50), which are known to express BCMA, were prepared, and human BCMA-overexpressed CHOK1-hBCMA cell line (constructed by ABIBio) were prepared.
10 μg/ml of the seven IgG antibodies (B58, 5A6, 5D5, 5B5, 1H, 2G, and 5G) purified in Example 1.4 was added to the prepared cells, incubated at 4° C. for 1 hour, and then washed two times with a PBS buffer solution. The anti-human Fc-FITC was diluted in 1:400, incubated at 4° C. for 1 hour, and then washed with a PBS buffer solution. These processes were repeated. In FIGS. 2A and 2B, MFI indicates mean fluorescence intensity.

Assay [2] has as its target T2, human BCMA-Fc/His (1-51) (human, UniProt Q02223 1-51).
T2 construct: also called recombinant human BCMA-Fc/His; recombinant human BCMA-His (Sino Biological Inc.); not shown: Fc region; C-terminal His tag
T2 sequence: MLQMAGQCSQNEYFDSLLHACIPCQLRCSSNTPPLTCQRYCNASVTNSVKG
Nature of the assay: BLI (Octet), antigen on Ni-NTA biosensor, IgG in solution. As for the experimental part:
A 96-well black microplate was mounted on a Biosensor tray case, 200 μl of 1XKB was added to each of the 8 wells, and then 8 Ni-NTA biosensors (Fortebio) were inserted thereto for hydration for 10 minutes. For antigen fixation, 5 μg/ml of recombinant human BCMA-His (Sino Biological Inc.) was diluted using 1XKB. Experiments were performed with a threshold of 0.5 to 1.0 nm, and Octet Data Acquisition 9.0 software was activated to create an Octet program template. The first step was for Baseline 1, the second step was for loading, and the threshold was fixed to 0.5 to 1.0 nm. In the third step, which was for Baseline 2, association for 5 minutes and dissociation for 20 minutes were performed. A plate temperature was fixed to 30° C., and the prepared buffer solution was placed in order into a new 96-well black microplate according to the Octet program template. 200 μl of 1XKB used as Baseline 1 and recombinant human BCMA-Fc/His which is an antigen to be loaded were diluted to 5 μg/ml, and 200 μl of the dilution was added thereto. After adding 200 μl of 1XKB used as Baseline 2, 200 μl of the antibody to be reacted with the antigen was dispensed, and the instrument was operated. After completion of the experiment, an association constant (kon), a dissociation constant (kdis), and an equilibrium dissociation constant (KD) for each antibody were analyzed and calculated with Octet Analysis 9.0 software.
For orientation: BLI is a label-free optical method that tracks binding on a fibre tip over time.

Assay [3] addresses T3, rat BCMA (1-49) fused to the Fc region of human IgG1 (rat; human).
T3 construct: Sino Biological Inc. 80156-R01H; also called 80156-R01H; not shown: Fc region of human IgG1
T3 chain: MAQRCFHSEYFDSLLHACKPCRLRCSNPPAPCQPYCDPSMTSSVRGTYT
Briefly: ELISA, 100 ng coated antigen. As for the experimental part: (§1) 100 ng of human, monkey, mouse, and rat BCMA antigens prepared in Example 1.1 were coated on the bottom of the plate, and then coated with 3% BSA to block nonspecific binding. Using the selected anti-BCMA IgG antibodies as primary antibodies, and the anti-human Fab HRP (1:20000 dilution) as a secondary antibody, ELISA assay was performed as described in Example 1.3.
(§2) Absorbancies at 450 nm measured with a microplate reader are shown in FIG. 3, and half maximal effective concentrations (EC₅₀) (nM) are shown in Table 9.

Assay [4] addresses T4, mouse BCMA (1-49) fused to the Fc region of human IgG1 (mouse; human, UniProt O88472 1-49).
T4 construct: Sino Biological Inc. 50076-M01H; also called 50076-M01H; not shown: Fc region of human IgG1
T4 chain: T3 chain with R4Q, R22H, P31T, M40V, R45K
Briefly: ELISA, 100 ng coated antigen. The protocol: as §1, §2

Assay [5] has as its target T4, mouse BCMA (1-49) fused to the Fc …. Briefly: ELISA on 100 ng coated mouse BCMA, antibody titrated, anti-human Fab HRP, absorbance 450 nm. As for the experimental part:
as §1, §2
On the technique in general: An ELISA detects its analyte on a solid surface through an enzyme-linked reagent.

B1: anti-BCMA IgG antibody 5D5 (antibody, V domains shown)
VH: EVQLLESGGGLVQPGGSLRLSCAASGFTFSDYGLSWVRQAPGKGLEWVSLIDSSGSSTFYADSVKGRFTISRDNSKNTLYLQMNSLRAEDTAVYYCAKEHGLFDSWGQGTLVTVSS
VL: EIVLTQSPGTLSLSPGERATLSCKASQDIDDDINWYQQKPGQAPRLLIYDASLRATGIPDRFSGSGSGTDFTLTISRLEPEDFAVYYCQQSLRTPITFGQGTKLEIKR
notes: also called 5D5 WT; 5D5 antibody
Turning to B1, the MFI in assay [1] was 21.8. In assay [2], binding was characterised by a dissociation constant (Kd) of 0.114 nM, the off-rate (koff) was determined as 0.000105 s⁻¹ and the kon amounted to 919000 M⁻¹ s⁻¹. Further, in assay [3], the EC50 was 98 nM. The EC50 in assay [4] worked out at 150 nM. In assay [5], the “EC50 (read off the curve)” value was approximately 0.01 µg/mL.

B2: anti-BCMA IgG antibody 5A6 (antibody, V domains shown)
VH: EVQLLESGGGLVQPGGSLRLSCAASGFTFSNYGVHWVRQAPGKGLEWVSYISYSGGTYYNPSLKSRFTISRDNSKNTLYLQMNSLRAEDTAVYYCARDSDDFGFDYWGQGTLVTVSS
VL: QSVLTQPPSASGTPGQRVTISCQGDSLRSYYVNWYQQLPGTAPKLLIYDHSKRPTGVPDRFSGSKSGTSASLAISGLRSEDEADYYCQSYDSSTVVFGGGTKLTVLG
notes: also called 5A6 WT; 5A6 antibody
As to B2, the MFI in assay [1] was found to be 54.7. Besides, in assay [2], the Kd amounted to 0.0212 nM, the koff was determined as 1.08e-05 s⁻¹ and the kon stood at 509000 M⁻¹ s⁻¹. Besides, the binding result in assay [5] is on record as “no binding (tested: about 30 µg/ml)”.
